Positions count from the first letter of the chain named. Names and notes keep the numbering of the source.
T1: NTwt (wildtype N-terminal (NT) fragment of Euprosthenops australis major ampullate spidroin 1) (Euprosthenops australis)
T1 chain: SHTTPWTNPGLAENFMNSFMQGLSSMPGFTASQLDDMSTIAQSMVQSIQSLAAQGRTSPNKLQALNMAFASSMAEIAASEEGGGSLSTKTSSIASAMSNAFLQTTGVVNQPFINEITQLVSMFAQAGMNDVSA

B1: NTwt (wildtype N-terminal (NT) fragment of Euprosthenops australis major ampullate spidroin 1) (protein)
chain: T1 chain
B2: NTD40K/K65D (charge-reversed double mutant of the NT fragment) (other)
chain: T1 chain with D36K, K61D
notes: Expressed in E. coli BL21 (DE3); also called charge-reversed NT mutant; NT mutant

Tests used:
[1] = target: T1, NTwt (wildtype N-terminal (NT) fragment …); assay: tryptophan fluorescence ratio 339/351 nm vs pH, 5 µM protein in 20 mM HEPES/20 mM MES; homodimerization; details: remark: other sources report otherwise
[2] = target: the molecule itself; assay: tryptophan fluorescence ratio 339/351 nm vs pH (self-association / dimerization)
Experimental: Fluorescence emission spectra for NT_{D40K/K65D} (SEQ ID NO: 2) and NTwt (SEQ ID NO: 11), respectively, were measured on a spectrofluorometer (Tecan Safire 2) using Costar® black polystyrene assay plates with 96 flat bottom wells. The proteins were diluted to a concentration of 5 μM in 20 mM HEPES/20 mM MES adjusted to pH 5.6-8.0 in steps of 0.4 pH units. After exciting the samples at 280 nm (5 nm bandwidth), emission spectra were recorded in 1 nm steps between 300-400 nm (10 nm bandwidth). The tryptophan fluorescence ratio was calculated from the intensities at 339 nm and 351 nm and plotted as a function of pH. […]
The pH-dependent monomer-dimer equilibrium of NT can be monitored through the fluorescence shift of a single tryptophan (Trp) residue that becomes more exposed in the dimer. FIG. 2 is a graph illustrating the monomer-dimer equilibrium measured with Trp fluorescence. Trp fluorescence spectra between 300 and 400 nm were measured in 20 mM HEPES/20 mM MES buffer and the ratio at 339/351 nm (wavelengths corresponding to monomer and dimer conformations, respectively) was calculated and plotted as a function of pH for NTwt (dotted line) and NT_{D40K/K65D} (filled line). The ratio of fluorescence at 339 and 351 nm as a function of pH gives a sigmoidal plot for NTwt with a pKa of dimerization at pH 6.5. […]

Row | Binder | pKa of dimerization [1] [pH] | binding result [2]
1 | B1 | 6.5 | 
2 | B2 |  | no binding (tested: 5 µM protein, pH 5.6-8.0)

Source: patent publication US20200207819A1 (SPIBER TECHNOLOGIES, published 2020)
